T1: FRMPD1, Q5SYB0
T1 sequence (Q5SYB0 52-145, limits assumed, looked up): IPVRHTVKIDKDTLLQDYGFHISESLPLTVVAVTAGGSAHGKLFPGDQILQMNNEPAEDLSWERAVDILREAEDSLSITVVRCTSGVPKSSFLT

T2: DVL3, Q92997
T2 sequence (Q92997 244-331, limits assumed, looked up): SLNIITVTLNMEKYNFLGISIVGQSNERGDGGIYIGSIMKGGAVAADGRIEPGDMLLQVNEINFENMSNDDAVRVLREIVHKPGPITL

T3: SHANK1, Q9Y566
T3 sequence (Q9Y566 658-767, limits assumed, looked up): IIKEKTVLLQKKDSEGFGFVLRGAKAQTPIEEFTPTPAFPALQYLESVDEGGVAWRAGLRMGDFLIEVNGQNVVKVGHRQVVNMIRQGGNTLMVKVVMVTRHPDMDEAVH

T4: APBA2_1, Q99767
T4 sequence (Q99767 563-664, limits assumed, looked up): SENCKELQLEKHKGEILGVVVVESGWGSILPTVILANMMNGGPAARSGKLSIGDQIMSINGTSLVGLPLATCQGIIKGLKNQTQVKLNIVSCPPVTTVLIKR

T5: APBA3_1, O96018
T5 sequence (O96018 389-490, limits assumed, looked up): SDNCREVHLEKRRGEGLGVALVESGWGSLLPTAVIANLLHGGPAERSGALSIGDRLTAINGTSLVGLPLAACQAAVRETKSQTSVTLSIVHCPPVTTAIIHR

T6: SYNJ2BP, P57105
T6 sequence (P57105 8-110, limits assumed, looked up): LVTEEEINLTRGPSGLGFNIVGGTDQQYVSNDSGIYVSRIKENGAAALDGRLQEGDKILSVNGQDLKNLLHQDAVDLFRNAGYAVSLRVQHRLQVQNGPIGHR

T7: DLG3_2, Q92796
T7 sequence (Q92796 221-321, limits assumed, looked up): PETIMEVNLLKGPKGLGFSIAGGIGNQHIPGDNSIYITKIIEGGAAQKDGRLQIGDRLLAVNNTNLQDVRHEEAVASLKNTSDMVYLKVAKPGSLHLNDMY

T8: SNTB1, Q13884
T8 sequence (Q13884 107-205, limits assumed, looked up): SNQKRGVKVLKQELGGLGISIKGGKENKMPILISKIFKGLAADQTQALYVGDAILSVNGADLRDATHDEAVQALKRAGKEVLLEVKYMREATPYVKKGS

T9: ARHGAP21, Q5T5U3
T9 sequence (Q5T5U3 45-169, limits assumed, looked up): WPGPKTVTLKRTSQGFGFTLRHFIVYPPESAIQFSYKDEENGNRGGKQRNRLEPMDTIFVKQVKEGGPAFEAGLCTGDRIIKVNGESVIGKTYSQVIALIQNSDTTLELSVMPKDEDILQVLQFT

T10: DLG3_1, Q92796
T10 sequence (Q92796 125-227, limits assumed, looked up): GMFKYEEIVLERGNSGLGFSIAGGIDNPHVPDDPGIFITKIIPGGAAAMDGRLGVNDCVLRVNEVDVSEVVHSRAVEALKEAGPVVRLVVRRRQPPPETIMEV

T11: GRIP1_5, Q9Y3R0
T11 sequence (Q9Y3R0 568-668, limits assumed, looked up): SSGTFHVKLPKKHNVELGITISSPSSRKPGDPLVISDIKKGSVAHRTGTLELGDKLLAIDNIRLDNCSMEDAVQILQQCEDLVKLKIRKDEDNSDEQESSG

T12: PDZD7_3, Q9H5P4
T12 sequence (Q9H5P4 857-944, limits assumed, looked up): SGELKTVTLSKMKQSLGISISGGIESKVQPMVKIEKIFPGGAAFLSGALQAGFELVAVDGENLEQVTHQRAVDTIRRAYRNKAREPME

T13: TJP3_3, O95049
T13 sequence (O95049 375-456, limits assumed, looked up): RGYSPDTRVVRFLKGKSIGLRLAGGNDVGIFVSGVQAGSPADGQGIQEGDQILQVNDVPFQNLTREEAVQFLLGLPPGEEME


Biological target: DLG1_2, Q12959
Test: holdup assay
Set-up: key: below the threshold = too weak to quantify, mostly under pKd 3.1 to 4
Conditions: plain residues with an end cap or a label only (N-terminal biotin on a linker: ado-ado)

DLG1_2, Q12959, sequence (Q12959 314-412): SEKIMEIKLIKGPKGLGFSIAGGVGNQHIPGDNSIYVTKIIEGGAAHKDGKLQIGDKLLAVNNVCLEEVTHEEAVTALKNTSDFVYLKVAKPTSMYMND

pKd | Binder
4.19 | SRPHTNETSL [MCC, P23508]
3.86 | PSVYSRSQYV [CLDN8, P56748]

Biological target: GRID2IP_2, A4D2P6
Test: holdup assay
Set-up: key: below the threshold = too weak to quantify, mostly under pKd 3.1 to 4
Conditions: plain residues with an end cap or a label only (N-terminal biotin on a linker: ado-ado)

GRID2IP_2, A4D2P6, sequence (A4D2P6 272-370): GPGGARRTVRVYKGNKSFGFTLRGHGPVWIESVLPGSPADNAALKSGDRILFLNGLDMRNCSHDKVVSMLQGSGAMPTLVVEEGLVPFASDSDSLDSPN

pKd | Binder
4.21 | SRPHTNETSL [MCC, P23508]
3.56 | PSVYSRSQYV [CLDN8, P56748]

Biological target: T1, FRMPD1, Q5SYB0
Test: holdup assay
Set-up: key: below the threshold = too weak to quantify, mostly under pKd 3.1 to 4
Conditions: plain residues with an end cap or a label only (N-terminal biotin on a linker: ado-ado)

pKd | Binder
below the threshold | SRPHTNETSL [MCC, P23508]
below the threshold | PSVYSRSQYV [CLDN8, P56748]

Biological target: MAGI2_6, Q86UL8
Test: holdup assay
Set-up: key: below the threshold = too weak to quantify, mostly under pKd 3.1 to 4
Conditions: plain residues with an end cap or a label only (N-terminal biotin on a linker: ado-ado)

MAGI2_6, Q86UL8, sequence (Q86UL8 1141-1229): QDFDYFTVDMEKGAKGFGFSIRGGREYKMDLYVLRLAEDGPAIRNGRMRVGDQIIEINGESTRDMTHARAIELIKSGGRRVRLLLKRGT

pKd | Binder
3.8 | SRPHTNETSL [MCC, P23508]
below the threshold | PSVYSRSQYV [CLDN8, P56748]

Biological target: T2, DVL3, Q92997
Test: holdup assay
Set-up: key: below the threshold = too weak to quantify, mostly under pKd 3.1 to 4
Conditions: plain residues with an end cap or a label only (N-terminal biotin on a linker: ado-ado)

pKd | Binder
below the threshold | SRPHTNETSL [MCC, P23508]
3.63 | PSVYSRSQYV [CLDN8, P56748]

Biological target: MAST1, Q9Y2H9
Test: holdup assay
Set-up: key: below the threshold = too weak to quantify, mostly under pKd 3.1 to 4
Conditions: plain residues with an end cap or a label only (N-terminal biotin on a linker: ado-ado)

MAST1, Q9Y2H9, sequence (Q9Y2H9 962-1065): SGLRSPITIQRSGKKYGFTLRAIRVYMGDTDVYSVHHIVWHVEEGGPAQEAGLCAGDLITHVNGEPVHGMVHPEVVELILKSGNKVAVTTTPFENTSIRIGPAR

pKd | Binder
4.96 | SRPHTNETSL [MCC, P23508]
3.95 | PSVYSRSQYV [CLDN8, P56748]

Biological target: SCRIB_2, Q14160
Test: holdup assay
Set-up: key: below the threshold = too weak to quantify, mostly under pKd 3.1 to 4
Conditions: plain residues with an end cap or a label only (N-terminal biotin on a linker: ado-ado)

SCRIB_2, Q14160, sequence (Q14160 857-960): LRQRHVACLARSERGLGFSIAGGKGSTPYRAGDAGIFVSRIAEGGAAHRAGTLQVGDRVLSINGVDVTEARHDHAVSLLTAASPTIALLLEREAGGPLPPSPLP

pKd | Binder
4.28 | SRPHTNETSL [MCC, P23508]
below the threshold | PSVYSRSQYV [CLDN8, P56748]

Biological target: T3, SHANK1, Q9Y566
Test: holdup assay
Set-up: key: below the threshold = too weak to quantify, mostly under pKd 3.1 to 4
Conditions: plain residues with an end cap or a label only (N-terminal biotin on a linker: ado-ado)

pKd | Binder
4.17 | SRPHTNETSL [MCC, P23508]
below the threshold | PSVYSRSQYV [CLDN8, P56748]

Biological target: Inadl_6, Q8NI35
Test: holdup assay
Set-up: key: below the threshold = too weak to quantify, mostly under pKd 3.1 to 4
Conditions: plain residues with an end cap or a label only (N-terminal biotin on a linker: ado-ado)

Inadl_6, Q8NI35, sequence (Q8NI35 1058-1167): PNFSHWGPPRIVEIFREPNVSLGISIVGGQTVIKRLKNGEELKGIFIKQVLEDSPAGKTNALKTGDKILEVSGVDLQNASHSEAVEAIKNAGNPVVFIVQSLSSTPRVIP

pKd | Binder
3.83 | SRPHTNETSL [MCC, P23508]
below the threshold | PSVYSRSQYV [CLDN8, P56748]

Biological target: T4, APBA2_1, Q99767
Test: holdup assay
Set-up: key: below the threshold = too weak to quantify, mostly under pKd 3.1 to 4
Conditions: plain residues with an end cap or a label only (N-terminal biotin on a linker: ado-ado)

pKd | Binder
below the threshold | SRPHTNETSL [MCC, P23508]
below the threshold | PSVYSRSQYV [CLDN8, P56748]

Biological target: T5, APBA3_1, O96018
Test: holdup assay
Set-up: key: below the threshold = too weak to quantify, mostly under pKd 3.1 to 4
Conditions: plain residues with an end cap or a label only (N-terminal biotin on a linker: ado-ado)

pKd | Binder
below the threshold | SRPHTNETSL [MCC, P23508]
below the threshold | PSVYSRSQYV [CLDN8, P56748]

Biological target: T6, SYNJ2BP, P57105
Test: holdup assay
Set-up: key: below the threshold = too weak to quantify, mostly under pKd 3.1 to 4
Conditions: plain residues with an end cap or a label only (N-terminal biotin on a linker: ado-ado)

pKd | Binder
4.84 | SRPHTNETSL [MCC, P23508]
below the threshold | PSVYSRSQYV [CLDN8, P56748]

Biological target: T7, DLG3_2, Q92796
Test: holdup assay
Set-up: key: below the threshold = too weak to quantify, mostly under pKd 3.1 to 4
Conditions: plain residues with an end cap or a label only (N-terminal biotin on a linker: ado-ado)

pKd | Binder
3.72 | SRPHTNETSL [MCC, P23508]
3.74 | PSVYSRSQYV [CLDN8, P56748]

Biological target: T8, SNTB1, Q13884
Test: holdup assay
Set-up: key: below the threshold = too weak to quantify, mostly under pKd 3.1 to 4
Conditions: plain residues with an end cap or a label only (N-terminal biotin on a linker: ado-ado)

pKd | Binder
4.67 | SRPHTNETSL [MCC, P23508]
below the threshold | PSVYSRSQYV [CLDN8, P56748]

Biological target: HTRA1, Q92743
Test: holdup assay
Set-up: key: below the threshold = too weak to quantify, mostly under pKd 3.1 to 4
Conditions: plain residues with an end cap or a label only (N-terminal biotin on a linker: ado-ado)

HTRA1, Q92743, sequence (Q92743 360-477): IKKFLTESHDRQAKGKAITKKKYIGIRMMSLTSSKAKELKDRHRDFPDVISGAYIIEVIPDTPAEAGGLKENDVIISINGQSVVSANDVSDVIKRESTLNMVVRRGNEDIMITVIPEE

pKd | Binder
below the threshold | SRPHTNETSL [MCC, P23508]
5.03 | PSVYSRSQYV [CLDN8, P56748]

Biological target: GRIP2_4, Q9C0E4
Test: holdup assay
Set-up: key: below the threshold = too weak to quantify, mostly under pKd 3.1 to 4
Conditions: plain residues with an end cap or a label only (N-terminal biotin on a linker: ado-ado)

GRIP2_4, Q9C0E4, sequence (Q9C0E4 446-548): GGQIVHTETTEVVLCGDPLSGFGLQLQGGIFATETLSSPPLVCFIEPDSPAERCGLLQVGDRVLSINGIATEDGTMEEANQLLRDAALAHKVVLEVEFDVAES

pKd | Binder
below the threshold | SRPHTNETSL [MCC, P23508]
below the threshold | PSVYSRSQYV [CLDN8, P56748]

Biological target: PDLIM1, O00151
Test: holdup assay
Set-up: key: below the threshold = too weak to quantify, mostly under pKd 3.1 to 4
Conditions: plain residues with an end cap or a label only (N-terminal biotin on a linker: ado-ado)

PDLIM1, O00151, sequence (O00151 1-87): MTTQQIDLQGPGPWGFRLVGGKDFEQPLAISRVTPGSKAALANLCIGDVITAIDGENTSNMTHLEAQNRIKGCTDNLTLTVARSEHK

pKd | Binder
below the threshold | SRPHTNETSL [MCC, P23508]
below the threshold | PSVYSRSQYV [CLDN8, P56748]

Biological target: MAGI2_5, Q86UL8
Test: holdup assay
Set-up: key: below the threshold = too weak to quantify, mostly under pKd 3.1 to 4
Conditions: plain residues with an end cap or a label only (N-terminal biotin on a linker: ado-ado)

MAGI2_5, Q86UL8, sequence (Q86UL8 915-1017): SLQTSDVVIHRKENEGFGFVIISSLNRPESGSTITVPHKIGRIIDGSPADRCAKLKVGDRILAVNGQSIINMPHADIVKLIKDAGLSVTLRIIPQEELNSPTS

pKd | Binder
3.72 | SRPHTNETSL [MCC, P23508]
below the threshold | PSVYSRSQYV [CLDN8, P56748]

Biological target: Inadl_4, Q8NI35
Test: holdup assay
Set-up: key: below the threshold = too weak to quantify, mostly under pKd 3.1 to 4
Conditions: plain residues with an end cap or a label only (N-terminal biotin on a linker: ado-ado)

Inadl_4, Q8NI35, sequence (Q8NI35 547-651): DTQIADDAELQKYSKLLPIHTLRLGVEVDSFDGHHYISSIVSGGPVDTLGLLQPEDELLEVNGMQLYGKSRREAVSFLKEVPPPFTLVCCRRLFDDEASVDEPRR

pKd | Binder
below the threshold | SRPHTNETSL [MCC, P23508]
below the threshold | PSVYSRSQYV [CLDN8, P56748]

Biological target: T9, ARHGAP21, Q5T5U3
Test: holdup assay
Set-up: key: below the threshold = too weak to quantify, mostly under pKd 3.1 to 4
Conditions: plain residues with an end cap or a label only (N-terminal biotin on a linker: ado-ado)

pKd | Binder
4.01 | SRPHTNETSL [MCC, P23508]
4.12 | PSVYSRSQYV [CLDN8, P56748]

Biological target: T10, DLG3_1, Q92796
Test: holdup assay
Set-up: key: below the threshold = too weak to quantify, mostly under pKd 3.1 to 4
Conditions: plain residues with an end cap or a label only (N-terminal biotin on a linker: ado-ado)

pKd | Binder
below the threshold | SRPHTNETSL [MCC, P23508]
below the threshold | PSVYSRSQYV [CLDN8, P56748]

Biological target: T11, GRIP1_5, Q9Y3R0
Test: holdup assay
Set-up: key: below the threshold = too weak to quantify, mostly under pKd 3.1 to 4
Conditions: plain residues with an end cap or a label only (N-terminal biotin on a linker: ado-ado)

pKd | Binder
below the threshold | SRPHTNETSL [MCC, P23508]
below the threshold | PSVYSRSQYV [CLDN8, P56748]

Biological target: T12, PDZD7_3, Q9H5P4
Test: holdup assay
Set-up: key: below the threshold = too weak to quantify, mostly under pKd 3.1 to 4
Conditions: plain residues with an end cap or a label only (N-terminal biotin on a linker: ado-ado)

pKd | Binder
4.36 | SRPHTNETSL [MCC, P23508]
below the threshold | PSVYSRSQYV [CLDN8, P56748]

Biological target: T13, TJP3_3, O95049
Test: holdup assay
Set-up: key: below the threshold = too weak to quantify, mostly under pKd 3.1 to 4
Conditions: plain residues with an end cap or a label only (N-terminal biotin on a linker: ado-ado)

pKd | Binder
below the threshold | SRPHTNETSL [MCC, P23508]
3.82 | PSVYSRSQYV [CLDN8, P56748]

Source: PMC9482650, “Quantitative fragmentomics allow affinity mapping of interactomes” (Nature Communications, 2022)
